{"source": "patent US20190282673A1", "about": "“STAPHTAME ACTIVITY ON BIOFILMS” (priority 2016, published 2019)", "molecules": {"B1": {"name": "P128: anti-staphylococcal chimeric protein: phage tail associated muralytic enzyme (TAME) cell wall-degrading region plus staphylococcus-specific binding region; SEQ ID NO: 1 (protein)", "chain": "MSLDSLKKYNGKLPKHDPSFVQPGNRHYKYQCTWYAYNRRGQLGIPVPLWGDAADWIGGAKGAGYGVGRTPKQGACVIWQRGVQGGSPQYGHVAFVEKVLDGGKKIFISEHNYATPNGYGTRTIDMSSAIGKNAQFIYDKKLETPNTGWKTNKYGTLYKSESASFTPNTDIITRTTGPFRSMPQSGVLKAGQTIHYDEVMKQDGHVWVGYTGNSGQRIYLPVRTWNKSTNTLGVLWGTIK", "modifications": "P128 chimera"}}, "key": {"[1]": {"system": "S. aureus small colony variants and wild type", "test": "CFU drop assay on small colony variants", "format": "cell-based, Staphylococcus aureus", "experimental": "Bacterial cultures were grown in LB medium at 37° C. until OD600 reached 1.0 and then diluted in LB to obtain 10^7 CFU. 100 μL of cells (10^7 CFU) in LB were treated with 100 μL of P128 (in saline) and incubated at 37° C. for 1 h, 200 rpm, cell controls without proteins were maintained. Following incubation, the volume was made up to 1 mL with LB broth, serially log diluted in LB broth and plated on LB agar. Incubated at 37° C. for 16-18 h to enumerate residual CFU and determine cell killing."}, "[2]": {"system": "S. aureus stationary phase cells", "test": "P128 activity on stationary phase cells (CFU)", "format": "cell-based, Staphylococcus aureus", "conditions": "for CFU/mL, P128 treated: 10 μg/mL P128, 2 h", "excerpt": "Most in vitro studies examining the activity of antibiotics have been performed on rapidly dividing planktonic bacterial cultures supplemented with rich growth media. However, in infections, bacteria seldom encounter optimal conditions that allow logarithmic growth. It is likely that stationary-phase or non dividing bacteria are common in many persistent Staphylococcus infections such as endocarditis and osteomyelitis and in biofilm-associated infections (e.g., on catheters, grafts, and foreign bodies). Therefore, activity of P128 was determined on stationary phase cells of three S. aureus strains, three S. epidermidis, and two each of S. lugdunensis and S. haemolyticus strains. Briefly, the test cultures were grown overnight in LB (˜10^9 cells), centrifuged, pellet was washed and resuspended in saline. Optical density (OD600) was adjusted to 0.2 (˜10^8 CFU/mL). 100 μL of these cells were treated with 10 μg/mL P128 (in saline) and incubated at 37° C. for 2 h, 200 rpm, cell controls without proteins were maintained. Following incubation, the volume was made up to 1 mL with saline, serially log diluted in saline and plated on LB agar. Incubated at 37° C. for 18 h to enumerate residual CFU to determine cell killing."}, "[3]": {"system": "S. aureus", "test": "P128 MIC in CAMHB and serum", "format": "cell-based, Staphylococcus aureus"}, "[4]": {"system": "S. haemolyticus", "test": "P128 MIC in CAMHB and serum", "format": "cell-based"}, "[5]": {"system": "MRSA MW2", "test": "Rat model of infective endocarditis", "format": "in vivo, Wistar albino rats", "conditions": "described in present tense, no data", "excerpt": "A rat model of infective endocarditis is used. Fernandez, et al. (2012). Synergistic activity of ceftobiprole and vancomycin in a rat model of infective endocarditis caused by methicillin-resistant and glycopeptide-intermediate Staphylococcus aureus. Antimicrob Agents Chemother. 56(3):1476-84. Female Wistar albino rats are operated under ketamine and xylazine anaesthesia Right carotid artery is cannulated and polyethylene catheter is placed near the […]. Two days later, animals are challenged with MRSA MW2 through tail vein. Twenty four hours post-challenge, animals are treated with appropriate doses of P128 (IV bolus or infusion) or standard of care antibiotics (e.g., vancomycin, daptomycin, linezolid, oxacillin, etc.) or both. Animals are euthanized at appropriate time after the last dosing, vegetations are collected and bacterial load is determined."}}, "data": [{"molecule": "B1", "values": [{"measurement": "Reduction in CFU of SCV strains", "setting": "[1]", "value": "more than 4 log"}, {"measurement": "CFU/mL, P128 treated", "setting": "[1]; S. aureus USA 300 (wild type), 1 h", "value": "4.5 × 10^2 CFU/mL"}, {"measurement": "CFU/mL, P128 treated", "setting": "[1]; hemB small colony mutant NR48387, 1 h", "value": "3.0 × 10^1 CFU/mL"}, {"measurement": "CFU/mL, P128 treated", "setting": "[1]; menD mutant small colony mutant, 1 h", "value": "1.2 × 10^3 CFU/mL"}, {"measurement": "CFU/mL, P128 treated", "setting": "[2]; S. aureus B9377 stationary phase", "value": "3 × 10^2 CFU/mL"}, {"measurement": "CFU/mL, P128 treated", "setting": "[2]; S. aureus BK18 stationary phase", "value": "1 × 10^1 CFU/mL"}, {"measurement": "CFU/mL, P128 treated", "setting": "[2]; S. aureus BK31 stationary phase", "value": "3.5 × 10^1 CFU/mL"}, {"measurement": "Drop in CFU, stationary cells", "setting": "[2]; S. aureus, S. epidermidis, S. lugdunensis and S. haemolyticus", "value": "Three to five log drop in CFU"}, {"measurement": "Fold reduction in serum MIC", "setting": "[3]; S. aureus MW2", "value": 64, "unit": "fold"}, {"measurement": "MIC of P128 in CAMHB", "setting": "[3]; S. aureus MW2", "value": "8 μg/ml and (0.29) μM"}, {"measurement": "MIC of P128 in Serum", "setting": "[3]; S. aureus MW2", "value": "0.12 μg/ml and (0.004) μM"}, {"measurement": "Fold reduction in serum MIC", "setting": "[3]; S. aureus USA 300", "value": 64, "unit": "fold"}, {"measurement": "MIC of P128 in CAMHB", "setting": "[3]; S. aureus USA 300", "value": "8 μg/ml and (0.29) μM"}, {"measurement": "MIC of P128 in Serum", "setting": "[3]; S. aureus USA 300", "value": "0.12 μg/ml and (0.004) μM"}, {"measurement": "Fold reduction in serum MIC", "setting": "[4]; S. haemolyticus B9478", "value": 16, "unit": "fold"}, {"measurement": "MIC of P128 in CAMHB", "setting": "[4]; S. haemolyticus B9478", "value": "128 μg/ml and (4.64) μM"}, {"measurement": "MIC of P128 in Serum", "setting": "[4]; S. haemolyticus B9478", "value": "8 μg/ml and (0.29) μM"}, {"measurement": "Fold reduction in serum MIC", "setting": "[4]; S. haemolyticus B9511", "value": 32, "unit": "fold"}, {"measurement": "MIC of P128 in CAMHB", "setting": "[4]; S. haemolyticus B9511", "value": "8 μg/ml and (0.29) μM"}, {"measurement": "MIC of P128 in Serum", "setting": "[4]; S. haemolyticus B9511", "value": "0.25 μg/ml and (0.008) μM"}, {"measurement": "24 h P128 MIC for serum time-kill", "setting": "[4]; S. haemolyticus, fetal calf serum", "value": 0.25, "unit": "µg/mL"}, {"measurement": "CFU reduction in vegetations", "setting": "[5]", "value": "Significantly higher CFU reduction"}]}]}
